B1: SARS-CoV-2 nsp9 (natural protein)
chain: NNELSPVALRQMSCAAGTTQTACTDDNALAYYNTTKGGRFVLALLSDLQDLKWARFPKSDGTGTIYTELEPPCRFVTDTPKGPKVKYLYFIKGLNNLNRGMVLGSLAATVRLQ
B2: RNAylated-nsp9 (20mer RNA) (natural protein)
chain: B1 chain

Target: SARS-CoV-2 nsp12 (SARS-CoV-2, UniProt P0DTD1)
Assay: cryo-EM structure

| Binder | binding result |
| --- | --- |
| B1 | binds |
| B2 | binds |
